FireProtDB (doi:10.1021/bi015547k)

Settings: Pseudomonas putida; pH 7; 25 °C; Urea; CD; potassium phosphate 20 mM; reversible: yes; whole UniProt chain shown

B1: Steroid Delta-isomerase wild type, P07445 (protein)
chain: MNLPTAQEVQGLMARYIELVDVGDIEAIVQMYADDATVEDPFGQPPIHGREQIAAFYRQGLGGGKVRACLTGPVRASHNGCGAMPFRVEMVWNGQPCALDVIDVMRFDEHGRIQTMQAYWSEVNLSVREPQ
denaturant m value: 3.39 kcal/mol/M | denaturant midpoint (higher = more stable): 5.22 M | unfolding free energy: 24.3 kcal/mol
